{"source": "patent US20160281093", "about": "“METHODS AND COMPOSITIONS FOR INTERFERENCE WITH DNA POLYMERASE AND DNA SYNTHESIS” (GEORGIA STATE UNIVERSITY RESEARCH FOUNDATION, INC., published 2016)", "binders": {"B1": {"name": "RNA-69mer (ssRNA)", "RNA": "GGGAGCCCUGUCACCGGAUGUGCUUUCCGGUCUGAUGAGUCCGUGAGGACAAAACAGGGCUCCCGAAUU"}}, "target": "E. coli DNA polymerase I (Escherichia coli, UniProt P00582 P00582:1-928)", "sequence (P00582 whole entry, one chain of several)": "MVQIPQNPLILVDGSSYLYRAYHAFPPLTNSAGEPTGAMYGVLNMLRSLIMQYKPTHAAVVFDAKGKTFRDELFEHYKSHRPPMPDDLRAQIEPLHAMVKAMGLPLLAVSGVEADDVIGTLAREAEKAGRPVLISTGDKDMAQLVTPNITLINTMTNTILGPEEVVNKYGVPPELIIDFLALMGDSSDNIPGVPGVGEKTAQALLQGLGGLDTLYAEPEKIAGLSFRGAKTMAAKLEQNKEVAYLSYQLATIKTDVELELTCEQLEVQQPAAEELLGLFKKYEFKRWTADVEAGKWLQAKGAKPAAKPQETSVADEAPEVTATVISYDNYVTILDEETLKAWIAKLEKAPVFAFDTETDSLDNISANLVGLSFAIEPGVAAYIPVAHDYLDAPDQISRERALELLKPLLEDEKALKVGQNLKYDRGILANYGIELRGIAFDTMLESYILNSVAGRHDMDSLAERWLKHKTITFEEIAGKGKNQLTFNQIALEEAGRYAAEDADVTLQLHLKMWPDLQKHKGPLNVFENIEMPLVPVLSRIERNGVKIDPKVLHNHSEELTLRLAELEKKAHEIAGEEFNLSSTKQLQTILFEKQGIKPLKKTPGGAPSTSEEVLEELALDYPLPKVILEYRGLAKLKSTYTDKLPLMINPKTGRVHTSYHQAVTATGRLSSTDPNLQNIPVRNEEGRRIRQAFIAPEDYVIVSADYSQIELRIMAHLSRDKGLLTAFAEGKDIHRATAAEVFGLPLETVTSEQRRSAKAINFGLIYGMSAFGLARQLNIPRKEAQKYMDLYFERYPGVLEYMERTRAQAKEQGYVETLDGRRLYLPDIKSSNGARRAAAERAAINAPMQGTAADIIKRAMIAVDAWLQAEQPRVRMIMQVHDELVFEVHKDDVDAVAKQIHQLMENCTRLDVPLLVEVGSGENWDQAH", "assay": "EMSA; Kd stated as determined from binding curves but value not given; RNA 50 nM, pol 0-80 nM, 10 mM KCl, 1 mM DTT, 5% glycerol, pH 7.0", "settings": "tags: New England Biolabs; label: body-labeled 32P", "method": "A mixture (5 μL) containing bodily ³²P-labeled RNA 69-mer (50 nM, final), DNA polymerase I (0, 20, 40, 60, or 80 nM), and binding buffer (final: 10 mM KCl, 1 mM DTT, 5% glycerol, pH 7.0) was incubated at room temperature for 30 minutes and then placed at 4° C. overnight. The binding solutions were mixed with the gel loading dye (final: 10 mM KCl, 1 mM DTT, 5% glycerol, 0.001% xylene blue w/v) and then loaded on 10% non-denaturing polyacrylamide gel in the running buffer (5 mM Tris-HCl, 10 mM EDTA, and pH 7.5). The gel was pre-run for 1 hour at 250 volts. After loading the samples, the gel was run with a constant voltage (250 volts) for one hour; all operations were performed in 4° C. cold room. The gel was fixed with 7% acetic acid (in methanol), dried, and scanned. The radioactive bands were quantified by phosphorimager using image quantifying software. […] Dissociation constant was determined from the binding curves.\nA mixture (5 μL) containing bodily ³²P-labeled RNA 69-mer (50 nM, final), DNA polymerase I (0, 20, 40, 60, or 80 nM), and binding buffer (final: 10 mM KCl, 1 mM DTT, 5% glycerol, pH 7.0) was incubated at room temperature for 30 minutes and then placed at 4° C. overnight. […] The radioactive bands were quantified by phosphorimager using image quantifying software. […] Dissociation constant was determined from the binding curves.", "data": [{"binder": "B1", "values": [{"measurement": "binding result", "result": "binds"}]}]}
